# B1: CPOX (parent)
# chain: HAPTIHFNYRYFEVEEADGNKQWW
# Variants of: B1
# Experiment: protein stability index of a GFP-peptide fusion (GPS, HEK-293T) (PSI 1-6); higher = more stable
# Conditions: c terminus: a fixed tail appended
# 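Further: lentivirally expressed fusions sorted by FACS into six bins by GFP to DsRed ratio, PSI derived from sequencing read proportions per bin multiplied by bin number.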
row,Variant,protein stability index
1,HAPTIHFNLRYFEVEEADGNKQWW [Y9L],3.03
2,HAPTIHFNCRYFEVEEADGNKQWW [Y9C],1.29
3,HAPTIHFNVRYFEVEEADGNKQWW [Y9V],2.25
4,HAPTIHFNWRYFEVEEADGNKQWW [Y9W],3.32
5,HAPTIHFNFRYFEVEEADGNKQWW [Y9F],2.05
6,HAPTIHFNHRYFEVEEADGNKQWW [Y9H],2.9
7,HAPTIHFNIRYFEVEEADGNKQWW [Y9I],2.22
8,HAKTIHFNYRYFEVEEADGNKQWW [P3K],1.93
9,HASTIHFNYRYFEVEEADGNKQWW [P3S],1.99
10,HAQTIHFNYRYFEVEEADGNKQWW [P3Q],1.65
11,HAMTIHFNYRYFEVEEADGNKQWW [P3M],1.97
12,HADTIHFNYRYFEVEEADGNKQWW [P3D],2.67
13,HAVTIHFNYRYFEVEEADGNKQWW [P3V],1.8
14,HAPTTHFNYRYFEVEEADGNKQWW [I5T],2.78
15,HAPTAHFNYRYFEVEEADGNKQWW [I5A],2.69
16,HAPTVHFNYRYFEVEEADGNKQWW [I5V],2.43
17,HAPTYHFNYRYFEVEEADGNKQWW [I5Y],1.97
18,HAPTDHFNYRYFEVEEADGNKQWW [I5D],3.41
19,HAPTKHFNYRYFEVEEADGNKQWW [I5K],2.29
20,HAPTGHFNYRYFEVEEADGNKQWW [I5G],2.25
21,HAPTLHFNYRYFEVEEADGNKQWW [I5L],2.14
22,HAPTIHFNYRYFECEEADGNKQWW [V14C],1.82
23,HAPTIHFNYRYFETEEADGNKQWW [V14T],2.43
24,HAPTIHFNYRYFESEEADGNKQWW [V14S],2.44

row,Variant,protein stability index
1,HAPTIHFNYRYFEDEEADGNKQWW [V14D],3.06
2,HAPTIHFNYRYFEHEEADGNKQWW [V14H],2.4
3,HAPTIHFNYRYFEKEEADGNKQWW [V14K],2.85
4,HAPTIHFNYRYFEQEEADGNKQWW [V14Q],2.85
5,HAPTIHFNYRYFEAEEADGNKQWW [V14A],2.52
6,HAPTIHFNYRYFEMEEADGNKQWW [V14M],2.06
7,HAPTIHFNYRYFEYEEADGNKQWW [V14Y],2.23
8,HAPTIHFNYRYFEVLEADGNKQWW [E15L],2.49
9,HAPTIHFNYRYFEVYEADGNKQWW [E15Y],1.9
10,HAPTIHFNYRYFEVSEADGNKQWW [E15S],2.49
11,HAPTIHFNYRYFEVMEADGNKQWW [E15M],2.35
12,HAPTIHFNYRYFEVDEADGNKQWW [E15D],2.58
13,HAPTIHFNYRYFEVHEADGNKQWW [E15H],1.5
14,HAPTIHFNYRYFEVGEADGNKQWW [E15G],2.04
15,HAPTIHFNYRYFEVPEADGNKQWW [E15P],2.13
16,HAPTIHFNYRYFEVQEADGNKQWW [E15Q],2.2
17,HAPTIHFNYRYFEVKEADGNKQWW [E15K],2.56
18,HAPTIHFNYRYFEVREADGNKQWW [E15R],1.41
19,HAPTIHFNYRYFEVFEADGNKQWW [E15F],2.14
20,HAPTIHFNYRYFEVIEADGNKQWW [E15I],2.7
21,HAPTIHFNYRYFEVEEADDNKQWW [G19D],3.04
22,HAPTIHFNYRYFEVEEADVNKQWW [G19V],2.11
23,HAPTIHFNYRYFEVEEADKNKQWW [G19K],2.17
24,HAPTIHFNYRYFEVEEADPNKQWW [G19P],2.04

row,Variant,protein stability index
1,HAPTIHFNYRYFEVEEADMNKQWW [G19M],2.06
2,HAPTIHFNYRYFEVEEADFNKQWW [G19F],2.46
3,HAPTIHFNYRYFEVEEADNNKQWW [G19N],2.22
4,HAPTIHFNYRYFEVEEADWNKQWW [G19W],1.79
5,HAPTIHFNYRYFEVEEADQNKQWW [G19Q],2.11
6,HAPTIHFNYRYFEVEEADSNKQWW [G19S],2.19
7,HAPTIHFNYRYQEVEEADGNKQWW [F12Q],2.63
8,HAPTIHFNYRYWEVEEADGNKQWW [F12W],1.99
9,HAPTIHFNYRYTEVEEADGNKQWW [F12T],3.08
10,HAPTIHFNYRYIEVEEADGNKQWW [F12I],2.33
11,HAPTIHFNYRYKEVEEADGNKQWW [F12K],3.04
12,HAPTIHFNYRYFEVEEAKGNKQWW [D18K],2.16
13,HAPTIHFNYRYFEVEEAHGNKQWW [D18H],2.86
14,HAPTIHFNYRYFEVEEAQGNKQWW [D18Q],3.07
15,HAPTIHFNYRYFEVEEAEGNKQWW [D18E],2.63
16,HAPTIHFNYRYFEVEEACGNKQWW [D18C],1.61
17,HAPTIHFNYRYFEVEEAGGNKQWW [D18G],2.45
18,HAPTIHFNYRYFEVEEARGNKQWW [D18R],2.18
19,HAPTIHFNYRYFEVEEAMGNKQWW [D18M],1.7
20,HAPTIHFNYRYFWVEEADGNKQWW [E13W],2.31
21,HAPTIHFNYRYFTVEEADGNKQWW [E13T],1.67
22,HAPTIHFNYRYFGVEEADGNKQWW [E13G],2.06
23,HAPTIHFNYRYFFVEEADGNKQWW [E13F],1.63
24,HAPTIHFNYRYFCVEEADGNKQWW [E13C],2.07

row,Variant,protein stability index
1,HAPTIHFNYRYFIVEEADGNKQWW [E13I],2.04
2,HAPTIHFNYRYFDVEEADGNKQWW [E13D],2.36
3,HAPTIHFNYRYFHVEEADGNKQWW [E13H],2.09
4,HAPTIHFNYYYFEVEEADGNKQWW [R10Y],2.27
5,HAPTIHFNYWYFEVEEADGNKQWW [R10W],1.99
6,HAPTIHFNYHYFEVEEADGNKQWW [R10H],2.44
7,HAPTIHFNYMYFEVEEADGNKQWW [R10M],2.37
8,HAPTIHFNYCYFEVEEADGNKQWW [R10C],1.5
9,HAPTIHFNYQYFEVEEADGNKQWW [R10Q],2.81
10,HAPTIHFNYGYFEVEEADGNKQWW [R10G],2.42
11,HAPTIHRNYRYFEVEEADGNKQWW [F7R],2.83
12,HAPTIHENYRYFEVEEADGNKQWW [F7E],3.06
13,HAPTIHGNYRYFEVEEADGNKQWW [F7G],3.52
14,HAPTIHINYRYFEVEEADGNKQWW [F7I],3.05
15,HAPTIHMNYRYFEVEEADGNKQWW [F7M],2.26
16,HAPTIHSNYRYFEVEEADGNKQWW [F7S],3.02
17,HAPTIHVNYRYFEVEEADGNKQWW [F7V],2.58
18,HAPTIQFNYRYFEVEEADGNKQWW [H6Q],2.52
19,HAPTISFNYRYFEVEEADGNKQWW [H6S],2.31
20,HAPTIGFNYRYFEVEEADGNKQWW [H6G],2.77
21,HAPTITFNYRYFEVEEADGNKQWW [H6T],2.42
22,HAPTICFNYRYFEVEEADGNKQWW [H6C],1.9
